Patent US20240150455A1 (SHANGHAI GENBASE BIOTECHNOLOGY, published 2024)

T1: human CLDN6 (Claudin 6) (human, UniProt P56747 1-220)
T1 sequence (looked up): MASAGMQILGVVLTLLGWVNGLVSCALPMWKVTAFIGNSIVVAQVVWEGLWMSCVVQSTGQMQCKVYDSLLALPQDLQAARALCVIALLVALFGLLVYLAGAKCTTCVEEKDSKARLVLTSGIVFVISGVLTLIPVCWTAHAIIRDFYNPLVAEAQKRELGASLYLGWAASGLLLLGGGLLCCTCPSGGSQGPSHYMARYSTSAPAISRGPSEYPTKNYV

T2: human CLDN9 (Claudin 9) (human, UniProt O95484 1-217)
T2 construct: whole, on cells; Over-expressed on CHOS cells by lentiviral infection; also called CHOS-CLDN9
T2 sequence (looked up): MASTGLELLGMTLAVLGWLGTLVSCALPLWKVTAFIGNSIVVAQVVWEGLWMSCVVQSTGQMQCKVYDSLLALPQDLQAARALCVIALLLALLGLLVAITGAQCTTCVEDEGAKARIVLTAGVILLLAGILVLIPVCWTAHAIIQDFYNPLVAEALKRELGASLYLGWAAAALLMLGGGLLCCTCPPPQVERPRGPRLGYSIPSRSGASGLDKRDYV


Key:
[1] = target: T1, human CLDN6 (Claudin 6); assay: cell-based or functional assay
[2] = target: T1, human CLDN6 (Claudin 6); assay: flow cytometry on Bewo tumor cells naturally expressing human CLDN6
Description: (§1) 500,000 CLDN6-naturally expressing tumor cells (0V90, ATCC; NEC8, JCRB; NTERA2, Nanjing Cobioer Biosciences Co., Ltd; Bewo, Nanjing Cobioer Biosciences Co., Ltd) were placed in FACS buffer for later use, in which round-bottom low-adsorption 96-well plates were used. Antibody samples were serially diluted with FACS buffer. The diluted antibody was added to the cell plates, and FACS buffer was added to the corresponding negative control wells, and incubation was performed at 4° C. for 1 hour. […] After staining, the supernatant was removed by centrifugation, washing was performed twice with FACS buffer, and the cells were resuspended by adding FACS buffer to each well, and then loaded on a machine for reading. A flow cytometer (BD Company, model CantoII) was used to measure and read the cells in the experimental plate. During the measurement, the position of cells was first delineated according to FCS and SSC, and then the fluorescence channel corresponding to the second antibody and SSC were selected to analyze the cells. GraphPad was used for data analysis, the logarithm of antibody concentration was used on the abscissa, and the average fluorescence intensity value was used on the ordinate. […]

[3] = target: T1, human CLDN6 (Claudin 6); assay: flow cytometry on NEC8 tumor cells naturally expressing human CLDN6
Description: as §1

[4] = target: T1, human CLDN6 (Claudin 6); assay: flow cytometry on OV90 tumor cells naturally expressing human CLDN6
Description: as §1

[5] = target: T1, human CLDN6 (Claudin 6); assay: flow cytometry on NTERA2 tumor cells naturally expressing human CLDN6
Description: as §1

[6] = target: T2, human CLDN9 (Claudin 9); assay: flow cytometry on CHOS-CLDN9 cells
Description: (§2) Flow cytometric evaluation of mouse antibody binding to CLDN3/4/6/9: 500,000 CLDN6 expressing cells (CHOS-hCLDN6, CHOS-CLDN3, CHOS-CLDN4, CHOS-CLDN9) were placed in FACS buffer (PBS+2% FBS)/well, added with the mouse antibody to be tested and incubated at 4° C. for 1 hour. The supernatant was removed by centrifugation, washing was performed twice with FACS buffer, secondary antibody (DyLight488 goat anti-mouse IgG, Abcam, Cat. No.: ab97015) was added and incubated at 4° C. for 0.5 hours. After staining, the supernatant was removed by centrifugation, washing was performed twice with FACS buffer, the cells were resuspended with FACS buffer, and then loaded on the machine for reading. A flow cytometer (BD company, model CantoII) was used to measure and read the experimental cells. During the measurement, the cell position was first delineated according to FCS and SSC, and then the fluorescence channel corresponding to the second antibody and SSC were selected to analyze the cells.

[7] = target: T1, human CLDN6 (Claudin 6); assay: flow cytometry on CHOS-hCLDN6 cells
Description: as §2

[8] = target: T1, human CLDN6 (Claudin 6); assay: binding to CLDN6-expressing cells (FIG. 6: NEC8, Bewo)

Binder	ADCC EC50, Bewo target cells, Jurkat-NFAT-Luc-CD16 effector reporter cells [1]	ADCC EC50, NEC8 target cells, Jurkat-NFAT-Luc-CD16 effector reporter cells [1]	ADCC EC50, NTERA2 target cells, Jurkat-NFAT-Luc-CD16 effector reporter cells [1]	ADCC EC50, OV90 target cells, Jurkat-NFAT-Luc-CD16 effector reporter cells [1]	EC50 [2]	EC50 [3]	EC50 [4]	EC50 [5]	binding result [7]	fold change of the ability to bind against the unmutated antibody [8]	also measured
humanized antibody 7008-01 (antibody, human IgG1, kappa, V domains shown, Human IgG1 heavy chain constant region, human kappa light chain constant region) VH: QVQLQESGPGLVKPSETLSLTCTVSGYSITSGYYWNWIRQPPGKGLEWMGYISYSGSNNYNPSLKNRVTISRDTSKNQFSLKLSSVTAADTAVYYCARGGYYFDYWGQGTLVTVSS VL: DIVMTQSPDSLAVSLGERATINCKSSQSLLNTNNQKNYLAWYQQKPGQPPKLLIYFASTRESGVPDRFSGSGSGTDFTLTISSLQAEDVAVYFCQQHYNAPRTFGGGTKVEIKR	0.7 mg/L	0.15 mg/L	0.55 mg/L	0.55 mg/L	1.06 mg/L	1.31 mg/L	2.85 mg/L	1.22 mg/L			
anti-CLDN6 murine antibody 9H3 (antibody, V domains shown, Mouse hybridoma antibody, detected with anti-mouse IgG; the murine constant regions are not) VH: EVQLVESGGDLVKPGGSLKLSCAASGFTFSIYGMSWVRQSPDRRLEWVATISRDGSYTYFPDSVKGRFTISRDNAKNTLYLQMSSLKSEDTAMYYCVRLGDNDRGYAMDYWGQGTSVTVSS VL: DVLMTQTPLSLPVSLGDQASISCRSSQSVVHVNGNTYLEWYLQKPGQSPRLLIYKVSNRFPGVPDRFSGSGSGTDFTLRISRVEAEDLGVYYCFQGSHVPRTFGGGTNLEIK									binds		binding result [6]: binds
9H3 hotspot mutant, LCDR1 NG mutated to NA and HCDR2 DG mutated to DA (antibody, V domains shown, also called 9H3 antibody with a hotspot mutant) VH: EVQLVESGGDLVKPGGSLKLSCAASGFTFSIYGMSWVRQSPDRRLEWVATISRDASYTYFPDSVKGRFTISRDNAKNTLYLQMSSLKSEDTAMYYCVRLGDNDRGYAMDYWGQGTSVTVSS VL: DVLMTQTPLSLPVSLGDQASISCRSSQSVVHVNANTYLEWYLQKPGQSPRLLIYKVSNRFPGVPDRFSGSGSGTDFTLRISRVEAEDLGVYYCFQGSHVPRTFGGGTNLEIK										≤ 3 times	
9H3 hotspot mutant, LCDR1 NG mutated to SG and HCDR2 DG mutated to DA (antibody, V domains shown, also called 9H3 antibody with a hotspot mutant) VH: EVQLVESGGDLVKPGGSLKLSCAASGFTFSIYGMSWVRQSPDRRLEWVATISRDASYTYFPDSVKGRFTISRDNAKNTLYLQMSSLKSEDTAMYYCVRLGDNDRGYAMDYWGQGTSVTVSS VL: DVLMTQTPLSLPVSLGDQASISCRSSQSVVHVSGNTYLEWYLQKPGQSPRLLIYKVSNRFPGVPDRFSGSGSGTDFTLRISRVEAEDLGVYYCFQGSHVPRTFGGGTNLEIK										≤ 3 times	
anti-CLDN6 murine antibody 15H2 (antibody, V domains shown, Mouse hybridoma antibody, detected with anti-mouse IgG; the murine constant regions are not) VH: DVQLQESGPGLVKPSQSLSLTCSVTGYSITSGYYWNWIRQFPGNKLEWMGYISYDGSNNYNPSLKNRFSIIRDTSKNQFFLKFNSVTTEDTATYYCARGGYYFDYWGQGTTLTVSS VL: not shown									binds		
humanized antibody 7008-03 (antibody, human IgG1, kappa, V domains shown, Human IgG1 heavy chain constant region, human kappa light chain constant region) VH: EVQLVESGGGLVQPGGSLRLSCAASGFTFSIYGMSWVRQAPGKGLEWVATISRDASYTYFPDSVKGRFTISRDNAKNSLYLQMNSLRAEDTAVYYCVRLGDNDRGYAMDYWGQGTLVTVSS VL: DVVMTQSPLSLPVTLGQPASISCRSSQSVVHVNANTYLEWYQQRPGQSPRLLIYKVSNRFPGVPDRFSGSGSGTDFTLKISRVEAEDVGVYYCFQGSHVPRTFGGGTKVEIKR	0.21 mg/L	0.071 mg/L	0.4 mg/L	0.16 mg/L	0.9 mg/L	0.91 mg/L	3.79 mg/L	1.02 mg/L			
